Measured values from paper PMC8808176 (The Journal of Biological Chemistry, 2021).

Biological target: the molecule itself
Assay: cryo-EM structure

B1: full-length mouse TRPML2 (mmTRPML2) with N-terminal maltose-binding protein (natural protein, UniProt Q8K595-1 1-566, looked up)
chain: MPGDEETLDLPAWNRVPDLTWGPHHRSAMASLDSEVREECLREDLKFYFMSPCEKYRARRQIPWKLGLQILKIVMVTTQLVRFGLSNQLVVAFKEDNTVAFKHLFLKGFSGVDEDDYSCSIYTQENTYESIFFAIKQYRHLKNISLATLGYGESEDNRTGLKVCKQHYKTGAMFSSNETLNIDSDIETDCIHLDLQVLTTEPEDWAQTSFFRLDFYRLVQVDISFALKGIDLQAVHSREIPDCYLFQNTITFDNTAHSGKIKIYLNSEANIEECKNMNISGSTQRSTHYLLVFDVFVIMICLASLILCTRSIVLALRLRKRFLNFFLEKYKQRVCGADQWEFVNGWYVLVTISDLMTIIGSILKMEIKAKKLTNYDVCSILLGTSTLFVWVGVIRYLGYFQTYNVLILTMQASLPKVLRFCACAGMIYLGYTFCGWIVLGPYHEKFENLNIVAECLFSLVNGDDMFATFAQIQQKSILVWLFSRLYLYSFISLFIYMVLSLFIALITDSYHTIKKYQQHGFPETDLQKFLKESGSKDGYQKQPSALLSCLCCLRRRRSNDHLILID
stoichiometry N: 4
